Numbering of substitutions follows the chain as printed.
B1: v29456-MC-GGFG-Compound 141 DAR 8 (antibody, human IgG1, kappa)
heavy: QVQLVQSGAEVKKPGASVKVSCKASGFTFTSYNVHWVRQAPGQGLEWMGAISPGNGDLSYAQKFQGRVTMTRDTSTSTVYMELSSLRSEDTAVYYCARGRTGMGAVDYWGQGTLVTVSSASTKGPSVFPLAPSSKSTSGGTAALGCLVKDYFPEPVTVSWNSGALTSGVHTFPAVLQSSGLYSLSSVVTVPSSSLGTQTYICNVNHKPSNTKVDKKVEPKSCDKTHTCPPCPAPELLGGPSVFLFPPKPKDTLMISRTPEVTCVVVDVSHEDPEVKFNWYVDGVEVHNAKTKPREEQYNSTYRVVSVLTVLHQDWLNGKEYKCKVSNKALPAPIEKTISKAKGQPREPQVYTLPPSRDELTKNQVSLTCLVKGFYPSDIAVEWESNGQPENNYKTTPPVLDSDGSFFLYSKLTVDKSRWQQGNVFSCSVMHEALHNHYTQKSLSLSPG
light: DVQMTQSPSSLSASVGDRVTITCRASQDVYSYLNWYQQKPGKAVKLLIYYTSRLQSGVPSRFSGSGSGTDYTLTISSLQPEDFATYYCQQYNIFPWTFGQGTKLEIKRTVAAPSVFIFPPSDEQLKSGTASVVCLLNNFYPREAKVQWKVDNALQSGNSQESVTEQDSKDSTYSLSSTLTLSKADYEKHKVYACEVTHQGLSSPVTKSFNRGEC
modifications: drug-linker MC-GGFG-Compound 141 on cysteine thiols after TCEP reduction, positions not given; DAR 8.0 for the whole antibody
B2: v29456-MC-GGFG-AM-Compound 139 DAR 3.4 (antibody, human IgG1, kappa)
heavy: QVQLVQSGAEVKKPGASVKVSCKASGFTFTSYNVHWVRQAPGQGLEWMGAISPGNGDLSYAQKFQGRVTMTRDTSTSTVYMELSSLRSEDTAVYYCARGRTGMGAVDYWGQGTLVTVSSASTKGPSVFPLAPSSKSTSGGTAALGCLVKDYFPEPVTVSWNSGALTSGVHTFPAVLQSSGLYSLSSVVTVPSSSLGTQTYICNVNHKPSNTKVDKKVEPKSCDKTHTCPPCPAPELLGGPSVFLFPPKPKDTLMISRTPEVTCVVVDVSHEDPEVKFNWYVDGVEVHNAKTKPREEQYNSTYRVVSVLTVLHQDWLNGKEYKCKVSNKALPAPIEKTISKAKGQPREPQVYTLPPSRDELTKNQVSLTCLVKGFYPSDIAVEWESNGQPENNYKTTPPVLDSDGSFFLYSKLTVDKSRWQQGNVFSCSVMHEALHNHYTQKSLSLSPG
light: B1 light
modifications: drug-linker MC-GGFG-AM-Compound 139 on cysteine thiols after TCEP reduction, positions not given; DAR 3.4 for the whole antibody
B3: v29456-MC-GGFG-Compound 141 DAR 3.4 (antibody, human IgG1, kappa)
heavy: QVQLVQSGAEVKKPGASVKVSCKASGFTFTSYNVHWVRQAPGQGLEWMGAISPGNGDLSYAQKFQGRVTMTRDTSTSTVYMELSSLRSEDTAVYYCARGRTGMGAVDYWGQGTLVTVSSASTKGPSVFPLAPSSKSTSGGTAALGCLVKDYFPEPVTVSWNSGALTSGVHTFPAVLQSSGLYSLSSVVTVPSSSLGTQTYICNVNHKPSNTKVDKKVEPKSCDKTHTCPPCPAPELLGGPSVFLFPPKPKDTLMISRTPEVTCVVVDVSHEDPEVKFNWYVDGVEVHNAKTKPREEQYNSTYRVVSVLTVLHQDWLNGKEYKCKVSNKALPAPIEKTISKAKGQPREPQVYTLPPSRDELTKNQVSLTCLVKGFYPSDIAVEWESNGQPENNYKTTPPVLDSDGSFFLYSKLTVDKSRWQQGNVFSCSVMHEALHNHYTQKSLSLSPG
light: B1 light
modifications: drug-linker MC-GGFG-Compound 141 on cysteine thiols after TCEP reduction, positions not given; DAR 3.4 for the whole antibody
B4: v29456-MT-GGFG-AM-Compound 139 DAR 8 (antibody, human IgG1, kappa)
heavy: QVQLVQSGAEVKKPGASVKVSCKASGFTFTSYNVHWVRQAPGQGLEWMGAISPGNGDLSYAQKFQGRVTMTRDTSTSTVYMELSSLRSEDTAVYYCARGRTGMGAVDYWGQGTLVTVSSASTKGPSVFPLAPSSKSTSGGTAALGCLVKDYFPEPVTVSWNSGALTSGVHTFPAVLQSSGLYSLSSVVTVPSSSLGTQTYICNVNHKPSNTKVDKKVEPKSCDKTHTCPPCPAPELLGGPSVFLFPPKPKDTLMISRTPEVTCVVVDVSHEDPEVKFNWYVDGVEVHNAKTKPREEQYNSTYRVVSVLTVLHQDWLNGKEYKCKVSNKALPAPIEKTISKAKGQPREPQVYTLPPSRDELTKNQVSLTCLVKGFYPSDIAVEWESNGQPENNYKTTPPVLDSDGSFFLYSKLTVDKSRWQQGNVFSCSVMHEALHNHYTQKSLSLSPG
light: B1 light
modifications: drug-linker MT-GGFG-AM-Compound 139 on cysteine thiols after TCEP reduction, positions not given; DAR 8 for the whole antibody
B5: v29456-MT-GGFG-AM-Compound 141 DAR 8 (antibody, human IgG1, kappa)
heavy: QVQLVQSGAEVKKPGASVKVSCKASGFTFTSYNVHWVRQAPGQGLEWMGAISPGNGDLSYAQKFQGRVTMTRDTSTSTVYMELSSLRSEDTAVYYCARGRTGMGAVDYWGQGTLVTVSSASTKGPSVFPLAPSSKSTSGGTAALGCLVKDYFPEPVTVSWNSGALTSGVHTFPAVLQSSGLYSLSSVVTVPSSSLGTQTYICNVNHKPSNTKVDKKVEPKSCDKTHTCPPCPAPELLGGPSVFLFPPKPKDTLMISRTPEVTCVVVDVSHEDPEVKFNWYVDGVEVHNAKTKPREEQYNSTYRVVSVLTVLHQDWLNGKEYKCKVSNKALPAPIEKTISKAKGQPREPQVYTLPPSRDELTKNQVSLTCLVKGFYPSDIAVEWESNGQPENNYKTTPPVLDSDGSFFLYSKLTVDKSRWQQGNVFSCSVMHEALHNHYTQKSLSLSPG
light: B1 light
modifications: drug-linker MT-GGFG-AM-Compound 141 on cysteine thiols after TCEP reduction, positions not given; DAR 8 for the whole antibody
B6: v29456-MT-GGFG-Compound 140 DAR 8 (antibody, human IgG1, kappa)
heavy: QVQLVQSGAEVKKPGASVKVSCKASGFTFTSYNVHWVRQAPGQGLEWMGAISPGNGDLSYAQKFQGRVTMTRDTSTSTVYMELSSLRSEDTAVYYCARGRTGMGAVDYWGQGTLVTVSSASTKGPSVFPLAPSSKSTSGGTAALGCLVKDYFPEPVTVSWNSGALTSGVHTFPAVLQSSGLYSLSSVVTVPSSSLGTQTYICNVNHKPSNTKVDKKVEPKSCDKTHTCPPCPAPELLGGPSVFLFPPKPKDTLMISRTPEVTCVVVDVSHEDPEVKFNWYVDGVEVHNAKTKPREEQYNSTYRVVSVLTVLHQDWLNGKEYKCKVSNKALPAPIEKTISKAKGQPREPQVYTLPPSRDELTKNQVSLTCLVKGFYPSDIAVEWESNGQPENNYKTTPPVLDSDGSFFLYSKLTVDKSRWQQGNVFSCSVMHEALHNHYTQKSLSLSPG
light: B1 light
modifications: drug-linker MT-GGFG-Compound 140 on cysteine thiols after TCEP reduction, positions not given; DAR 8 for the whole antibody
B7: v29456-MC-GGFG-AM-DXd1 DAR 8 (antibody, human IgG1, kappa)
heavy: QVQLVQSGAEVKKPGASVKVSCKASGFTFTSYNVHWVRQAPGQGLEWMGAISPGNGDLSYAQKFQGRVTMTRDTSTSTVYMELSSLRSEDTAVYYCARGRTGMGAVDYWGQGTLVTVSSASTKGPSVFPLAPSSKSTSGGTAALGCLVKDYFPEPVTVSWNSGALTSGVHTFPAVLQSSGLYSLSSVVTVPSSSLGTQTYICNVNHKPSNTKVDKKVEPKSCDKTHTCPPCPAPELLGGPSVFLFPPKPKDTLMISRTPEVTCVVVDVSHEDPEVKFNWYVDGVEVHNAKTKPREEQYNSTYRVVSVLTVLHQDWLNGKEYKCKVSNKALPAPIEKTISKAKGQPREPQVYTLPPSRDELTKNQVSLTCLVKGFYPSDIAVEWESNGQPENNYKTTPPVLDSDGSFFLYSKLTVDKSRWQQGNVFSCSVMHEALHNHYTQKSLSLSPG
light: B1 light
modifications: drug-linker MC-GGFG-AM-DXd1 on cysteine thiols after TCEP reduction, positions not given; DAR 8 for the whole antibody
B8: v29455 (H2L2) (antibody, human IgG1, kappa, V domains shown)
VH: QVQLVQSGAEVKKPGASVKVSCKASGFTFTSYNVHWVRQAPGQGLEWIAAISPGNGDLSYAQKFQGRVTMTVDTSTSTVYMELSSLRSEDTAVYYCARGRTGMGAVDYWGQGTLVTVSS
VL: DVQMTQSPSSLSASVGDRVTITCRASQDVYSYLNWYQQKPGKAVKLLIYYTSRLQSGVPSRFSGSGSGTDYTLTISSLQPEDFATYYCQQYNIFPWTFGQGTKLEIKR
notes: Humanized IgG1/kappa
B9: v29459 (H2L1) (antibody, human IgG1, kappa, V domains shown)
VH: B8 VH
VL: B8 VL with V2I, V44P, Y71F
notes: Humanized IgG1/kappa
B10: v29450 (H3L3) (antibody, human IgG1, kappa, V domains shown)
VH: B8 VH with V20M, V68A, M70L, V79A
VL: B8 VL with F83I
notes: Humanized IgG1/kappa
B11: v29451 (H2L3) (antibody, human IgG1, kappa, V domains shown)
VH: B8 VH
VL: B8 VL with F83I
notes: Humanized IgG1/kappa
B12: v29460 (H1L1) (antibody, human IgG1, kappa, V domains shown)
VH: B8 VH with I48M, A49G, V72R
VL: B8 VL with V2I, V44P, Y71F
notes: Humanized IgG1/kappa
B13: v29454 (H3L2) (antibody, human IgG1, kappa, V domains shown)
VH: B8 VH with V20M, V68A, M70L, V79A
VL: B8 VL
notes: Humanized IgG1/kappa
B14: v29453 (H4L2) (antibody, human IgG1, kappa, V domains shown)
VH: B8 VH with V20M, V68A, M70L, T74R, V79A
VL: B8 VL
notes: Humanized IgG1/kappa; clones CL_#21506 and CL_#21508
B15: v29458 (H3L1) (antibody, human IgG1, kappa, V domains shown)
VH: B8 VH with V20M, V68A, M70L, V79A
VL: B8 VL with V2I, V44P, Y71F
notes: Humanized IgG1/kappa
B16: v29449 (H4L3) (antibody, human IgG1, kappa, V domains shown)
VH: B8 VH with V20M, V68A, M70L, T74R, V79A
VL: B8 VL with F83I
notes: Humanized IgG1/kappa
B17: v29457 (H4L1) (antibody, human IgG1, kappa, V domains shown)
VH: B8 VH with V20M, V68A, M70L, T74R, V79A
VL: B8 VL with V2I, V44P, Y71F
notes: Humanized IgG1/kappa; clones CL_#21506 and CL_#21507
B18: v18993 (lifastuzumab)-DL2 (antibody, human IgG1, kappa)
heavy 1: GEVQLVESGGGLVQPGGSLRLSCAASGFSFSDFAMSWVRQAPGKGLEWVATIGRVAFHTYYPDSMKGRFTISRDNSKNTLYLQMNSLRAEDTAVYYCARHRGFDVGHFDFWGQGTLVTVSSASTKGPSVFPLAPSSKSTSGGTAALGCLVKDYFPEPVTVSWNSGALTSGVHTFPAVLQSSGLYSLSSVVTVPSSSLGTQTYICNVNHKPSNTKVDKKVEPKSCDKTHTCPPCPAPELLGGPSVFLFPPKPKDTLMISRTPEVTCVVVDVSHEDPEVKFNWYVDGVEVHNAKTKPREEQYNSTYRVVSVLTVLHQDWLNGKEYKCKVSNKALPAPIEKTISKAKGQPREPQVYVYPPSRDELTKNQVSLTCLVKGFYPSDIAVEWESNGQPENNYKTTPPVLDSDGSFALVSKLTVDKSRWQQGNVFSCSVMHEALHNHYTQKSLSLSPG
heavy 2: not shown
light: GDIQMTQSPSSLSASVGDRVTITCRSSETLVHSSGNTYLEWYQQKPGKAPKLLIYRVSNRFSGVPSRFSGSGSGTDFTLTISSLQPEDFATYYCFQGSFNPLTFGQGTKVEIKRTVAAPSVFIFPPSDEQLKSGTASVVCLLNNFYPREAKVQWKVDNALQSGNSQESVTEQDSKDSTYSLSSTLTLSKADYEKHKVYACEVTHQGLSSPVTKSFNRGEC
modifications: as above; maleimide functionalized auristatin drug linker (DL2); sites and DAR not stated
notes: also called lifastuzumab-DL2 ADC
B19: v29456-MT-GGFG-AM-Compound 136 DAR 8 (antibody, human IgG1, kappa)
heavy: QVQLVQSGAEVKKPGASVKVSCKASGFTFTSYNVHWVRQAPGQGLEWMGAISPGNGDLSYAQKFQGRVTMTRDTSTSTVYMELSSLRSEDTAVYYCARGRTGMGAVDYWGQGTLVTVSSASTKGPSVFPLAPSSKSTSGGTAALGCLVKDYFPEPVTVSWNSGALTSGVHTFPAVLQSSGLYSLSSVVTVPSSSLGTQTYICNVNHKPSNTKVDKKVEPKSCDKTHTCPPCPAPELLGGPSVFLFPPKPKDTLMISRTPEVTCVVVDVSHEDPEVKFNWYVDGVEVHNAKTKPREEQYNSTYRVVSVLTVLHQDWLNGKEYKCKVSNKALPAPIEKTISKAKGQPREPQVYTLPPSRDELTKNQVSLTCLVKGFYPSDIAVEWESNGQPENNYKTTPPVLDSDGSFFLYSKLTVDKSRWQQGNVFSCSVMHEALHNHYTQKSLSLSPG
light: B1 light
modifications: drug-linker MT-GGFG-AM-Compound 136 on cysteine thiols after TCEP reduction, positions not given; DAR 8 for the whole antibody
B20: v29456-MT-GGFG-AM-Compound 129 DAR 8 (antibody, human IgG1, kappa)
heavy: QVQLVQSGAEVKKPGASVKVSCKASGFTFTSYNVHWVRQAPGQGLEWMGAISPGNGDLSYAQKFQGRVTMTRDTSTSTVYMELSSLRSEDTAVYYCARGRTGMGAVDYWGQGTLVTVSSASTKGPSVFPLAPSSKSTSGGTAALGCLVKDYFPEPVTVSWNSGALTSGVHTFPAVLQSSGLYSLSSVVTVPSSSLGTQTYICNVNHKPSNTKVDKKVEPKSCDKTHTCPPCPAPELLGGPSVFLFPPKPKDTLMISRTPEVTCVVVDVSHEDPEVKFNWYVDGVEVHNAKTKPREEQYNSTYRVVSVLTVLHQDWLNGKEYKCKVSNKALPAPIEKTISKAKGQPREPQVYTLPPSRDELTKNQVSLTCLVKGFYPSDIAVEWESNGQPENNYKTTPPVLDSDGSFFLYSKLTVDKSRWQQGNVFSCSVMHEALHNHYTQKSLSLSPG
light: B1 light
modifications: drug-linker MT-GGFG-AM-Compound 129 on cysteine thiols after TCEP reduction, positions not given; DAR 8 for the whole antibody
B21: v29456-MT-GGFG-Compound 148 DAR 8 (antibody, human IgG1, kappa)
heavy: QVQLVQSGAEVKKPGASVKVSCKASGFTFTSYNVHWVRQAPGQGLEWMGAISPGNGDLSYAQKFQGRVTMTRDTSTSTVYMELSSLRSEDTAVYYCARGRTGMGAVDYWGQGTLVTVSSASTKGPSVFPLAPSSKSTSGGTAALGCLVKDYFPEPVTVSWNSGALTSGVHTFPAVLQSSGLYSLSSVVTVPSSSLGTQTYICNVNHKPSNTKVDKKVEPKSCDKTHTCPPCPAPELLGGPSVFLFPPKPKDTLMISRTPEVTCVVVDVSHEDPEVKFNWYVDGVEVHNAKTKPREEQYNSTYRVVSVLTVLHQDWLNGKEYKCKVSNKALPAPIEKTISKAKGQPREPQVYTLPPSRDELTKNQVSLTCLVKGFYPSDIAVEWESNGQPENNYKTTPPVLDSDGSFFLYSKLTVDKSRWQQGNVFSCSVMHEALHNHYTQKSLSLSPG
light: B1 light
modifications: drug-linker MT-GGFG-Compound 148 on cysteine thiols after TCEP reduction, positions not given; DAR 8 for the whole antibody
B22: palivizumab (anti-RSV antibody, v21995) (antibody, human IgG1, kappa, V domains shown)
VH: QVTLRESGPALVKPTQTLTLTCTFSGFSLSTSGMSVGWIRQPPGKALEWLADIWWDDKKDYNPSLKSRLTISKDTSKNQVVLKVTNMDPADTATYYCARSMITNWYFDVWGAGTTVTVSS
VL: DIQMTQSPSTLSASVGDRVTITCKSQLSVGYMHWYQQKPGKAPKLLIYDTSKLASGVPSRFSGSGSGTEFTLTISSLQPDDFATYYCFQGSGYPFTFGGGTKLEIKR

target: T1, human sodium-dependent phosphate transporter 2B (NaPi2b) (human, UniProt O95436 1-690); test: cell-based or functional assay
T1 sequence: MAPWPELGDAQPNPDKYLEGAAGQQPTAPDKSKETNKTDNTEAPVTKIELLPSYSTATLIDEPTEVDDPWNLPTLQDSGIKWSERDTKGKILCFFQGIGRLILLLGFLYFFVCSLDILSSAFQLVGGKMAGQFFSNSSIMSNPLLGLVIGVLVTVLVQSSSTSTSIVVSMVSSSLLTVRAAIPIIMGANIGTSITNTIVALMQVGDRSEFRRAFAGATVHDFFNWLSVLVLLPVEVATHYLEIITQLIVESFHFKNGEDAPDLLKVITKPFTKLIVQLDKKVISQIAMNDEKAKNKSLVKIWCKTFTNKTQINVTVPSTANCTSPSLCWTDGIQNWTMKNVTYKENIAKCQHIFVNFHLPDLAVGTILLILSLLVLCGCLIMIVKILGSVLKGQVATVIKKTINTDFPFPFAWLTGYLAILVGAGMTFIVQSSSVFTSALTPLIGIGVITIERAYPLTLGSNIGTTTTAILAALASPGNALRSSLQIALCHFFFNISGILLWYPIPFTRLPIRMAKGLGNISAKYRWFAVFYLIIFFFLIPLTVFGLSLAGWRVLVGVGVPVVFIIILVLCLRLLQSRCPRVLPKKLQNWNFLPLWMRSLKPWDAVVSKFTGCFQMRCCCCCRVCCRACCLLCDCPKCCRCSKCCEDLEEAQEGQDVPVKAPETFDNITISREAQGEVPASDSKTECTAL

Row | Binder | EC50, in vitro cytotoxicity, IGROV-1 spheroids | EC50, in vitro cytotoxicity, TOV-21G:HDFa (1:1) spheroids
1 | B1 | 0.44 nM | 0.9 nM
2 | B2 | 0.88 nM | 0.76 nM
3 | B3 | 1.31 nM | 0.99 nM

target: T1, human sodium-dependent phosphate …; test: cell-based or functional assay; remark: another data set of the same source

Row | Binder | EC50, in vitro cytotoxicity, HCC-78 spheroids | EC50, in vitro cytotoxicity, IGROV-1 spheroids
4 | B4 | 0.82 nM | 0.37 nM
5 | B5 | 0.33 nM | 0.21 nM
6 | B6 | 0.19 nM | 0.25 nM
7 | B7 | 0.6 nM | 0.27 nM

target: T2, human sodium-dependent phosphate transporter 2B (NaPi2b) (human, UniProt O95436 1-690); test: flow cytometry, IGROV-1 cells (endogenous NaPi2b); design: unit not given here
T2 construct: UniProt ID is given as 095436 [sic]; also called hNaPi2b; Hu NaPi2b
T2 sequence: T1 sequence

Row | Binder | Bmax
8 | B8 | 41900
9 | B9 | 40900
10 | B10 | 43800
11 | B11 | 46200
12 | B12 | 40100
13 | B13 | 42300
14 | B14 | 44500
15 | B15 | 40800
16 | B16 | 44500
17 | B17 | 44500
18 | B18 | 39800

target: T1, human sodium-dependent phosphate …; test: cell-based or functional assay; remark: another data set of the same source

Row | Binder | EC50, in vitro cytotoxicity, 2D monolayer, HCC-78 | EC50, in vitro cytotoxicity, 2D monolayer, IGROV-1
19 | B19 | 0.43 nM | 4.48 nM
20 | B4 | 0.65 nM | 1.71 nM
21 | B20 | 0.42 nM | 1.11 nM
22 | B21 | 1.98 nM | –
23 | B5 | 0.26 nM | 1.56 nM
24 | B6 | 0.6 nM | –
25 | B7 | 0.55 nM | 0.45 nM

target: T3, human NaPi2b (sodium-dependent phosphate transporter 2B) (human, UniProt O95436 1-690); test: cell-based or functional assay
T3 sequence: T1 sequence

Row | Binder | Internalized Fluorescence Fold-Over Untreated, H441, 4 h, 2.5 nM | Internalized Fluorescence Fold-Over Untreated, H441, 24 h, 2.5 nM | Internalized Fluorescence Fold-Over Untreated, HCC-78, 4 h, 2.5 nM | Internalized Fluorescence Fold-Over Untreated, HCC-78, 24 h, 2.5 nM | Internalized Fluorescence Fold-Over Untreated, IGROV-1, 4 h, 2.5 nM | Internalized Fluorescence Fold-Over Untreated, IGROV-1, 24 h, 2.5 nM
26 | B22 | 1 fold | 1.1 fold | 1 fold | 1.1 fold | 0.9 fold | 1 fold

target: T2, human sodium-dependent phosphate …; test: flow cytometry, IGROV-1 cells (endogenous NaPi2b); apparent Kd

Row | Binder | Kd
27 | B8 | 1.18 nM
28 | B9 | 1.61 nM
29 | B10 | 0.96 nM
30 | B11 | 1.49 nM
31 | B12 | 1.67 nM
32 | B13 | 0.92 nM
33 | B14 | 0.82 nM
34 | B15 | 1.39 nM
35 | B16 | 0.79 nM
36 | B17 | 1.73 nM
37 | B18 | 3 nM

target: T1, human sodium-dependent phosphate …; test: cell-based or functional assay; remark: another data set of the same source

Row | Binder | EC50, in vitro cytotoxicity, 2D monolayer, IGROV-1 | EC50, in vitro cytotoxicity, 2D monolayer, TOV-21G
38 | B1 | 3.01 nM | 0.93 nM
39 | B2 | 5.46 nM | –
40 | B3 | 16.4 nM | –
